For one experiment, the target named is PP1CA-MRAS (Homo sapiens, UniProt P62136). The experiment is described as follows: ITC. In general terms: Isothermal titration calorimetry measures the heat released or taken up as one component is titrated into another.
In a further experiment the target is PP1CA-NRAS (Homo sapiens, UniProt P62136). The experiment is described as follows: SPR.
A further experiment addresses PP1CA-HRAS (Homo sapiens, UniProt P62136). The experiment is described as follows: SPR. (Surface plasmon resonance follows binding to a sensor surface in real time, without labels.)
Another experiment concerns the target PP1CA-KRAS (Homo sapiens, UniProt P62136). The experiment is described as follows: SPR.

B1: SHOC2 (protein)
chain: MSSSLGKEKDSKEKDPKVPSAKEREKEAKASGGFGKESKEKEPKTKGKDAKDGKKDSSAAQPGVAFSVDNTIKRPNPAPGTRKKSSNAEVIKELNKCREENSMRLDLSKRSIHILPSSIKELTQLTELYLYSNKLQSLPAEVGCLVNLMTLALSENSLTSLPDSLDNLKKLRMLDLRHNKLREIPSVVYRLDSLTTLYLRFNRITTVEKDIKNLSKLSMLSIRENKIKQLPAEIGELCNLITLDVAHNQLEHLPKEIGNCTQITNLDLQHNELLDLPDTIGNLSSLSRLGLRYNRLSAIPRSLAKCSALEELNLENNNISTLPESLLSSLVKLNSLTLARNCFQLYPVGGPSQFSTIYSLNMEHNRINKIPFGIFSRAKVLSKLNMKDNQLTSLPLDFGTWTSMVELNLATNQLTKIPEDVSGLVSLEVLILSNNLLKKLPHGLGNLRKLRELDLEENKLESLPNEIAYLKDLQKLVLTNNQLTTLPRGIGHLTNLTHLGLGENLLTHLPEEIGTLENLEELYLNDNPNLHSLPFELALCSKLSIMSIENCPLSHLPPQIVAGGPSFIIQFLKMQGPYRAMV
modifications: GMPPNP
What is called Kd is the free concentration of one partner at which half of the binding sites on the other are occupied at equilibrium, for simple one-to-one binding. Take B1: the Kd in the experiment with PP1CA-MRAS was about 0.35 µM; with PP1CA-NRAS, 4 µM; with PP1CA-HRAS it was 2 µM; with PP1CA-KRAS, 0.7 µM.

These data come from paper PMC10365013 (2022).
